T1: EsCas13d, nuclease-dead (Eubacterium siraeum, UniProt B0MS50, R295A;H300A;R849A;H854A)
T1 sequence: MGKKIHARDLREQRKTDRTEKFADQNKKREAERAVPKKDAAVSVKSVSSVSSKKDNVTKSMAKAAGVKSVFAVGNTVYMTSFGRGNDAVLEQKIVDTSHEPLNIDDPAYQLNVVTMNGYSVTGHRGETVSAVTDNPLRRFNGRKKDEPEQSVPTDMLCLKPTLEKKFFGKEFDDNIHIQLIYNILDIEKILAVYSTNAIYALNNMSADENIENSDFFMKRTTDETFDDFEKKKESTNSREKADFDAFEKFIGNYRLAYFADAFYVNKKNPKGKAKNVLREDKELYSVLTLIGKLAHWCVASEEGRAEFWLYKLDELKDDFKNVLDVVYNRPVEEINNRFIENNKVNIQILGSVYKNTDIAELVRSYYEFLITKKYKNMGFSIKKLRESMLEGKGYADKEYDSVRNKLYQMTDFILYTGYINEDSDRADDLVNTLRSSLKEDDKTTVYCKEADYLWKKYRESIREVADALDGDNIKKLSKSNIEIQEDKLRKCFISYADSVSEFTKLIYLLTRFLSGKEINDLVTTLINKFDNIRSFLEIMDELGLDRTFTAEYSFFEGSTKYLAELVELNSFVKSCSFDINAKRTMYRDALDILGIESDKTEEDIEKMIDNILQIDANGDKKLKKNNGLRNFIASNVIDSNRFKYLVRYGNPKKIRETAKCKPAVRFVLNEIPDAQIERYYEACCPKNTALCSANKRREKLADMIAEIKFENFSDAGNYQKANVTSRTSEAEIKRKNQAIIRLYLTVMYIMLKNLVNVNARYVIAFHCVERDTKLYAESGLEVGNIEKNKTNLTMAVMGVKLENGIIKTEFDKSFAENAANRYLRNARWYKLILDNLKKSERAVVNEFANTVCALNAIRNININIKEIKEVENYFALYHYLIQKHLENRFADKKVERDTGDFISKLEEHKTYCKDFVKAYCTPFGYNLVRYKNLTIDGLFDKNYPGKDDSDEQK


biological target: T1, EsCas13d, nuclease-dead; test: crRNA (strand 1, pre-loaded); Mg2+; 40 mM Tris-HCl pH 7.5, 150 mM NaCl, 6 mM MgCl2, 1 mM DTT, 0.1% Tween-20, 0.2 mg/ml BSA; 25 C; 10 min per concentration, then washed; details: tags: His6-TwinStrep-SUMO cleaved; N-terminal SNAP kept (SNAP-Surface 488); label: 3' end held by stalled T7 RNA polymerase

Row | Binder | Kd [nM]
1 | target 1 C2G,G17C (mixed) RNA 1: CACCCGUGCAAAAAUGCAGGGGUCUAAAACUGAGCGGAUAACCUCUCUAUGG RNA 2: GGGAAUGGAUCCACAUCUACGAAUUCGUACCAUACAGAGGUUAUCCGCUGACCGAGAUCGGAAGAGCACACGU | 50 ± 6
2 | target 1 U11A,A14G (mixed) RNA 1: CACCCGUGCAAAAAUGCAGGGGUCUAAAACUGAGCGGAUAACCUCUCUAUGG RNA 2: GGGAAUGGAUCCACAUCUACGAAUUCGUACCAUAGAGGGGAUAUCCGCUCACCGAGAUCGGAAGAGCACACGU | 43 ± 4
3 | target 2 MT 5'PFS AUU 3'PFS CUG (mixed) RNA 1: CACCCGUGCAAAAUUGCAGGGGUCUAAAACCUUCUCCAAAUUGUUUCAUCCU RNA 2: GGGAAUGGAUCCACAUCUACGAAUUCAUUAGGAUGAAACAAUUUGGAGAAGCUGAGAUCGGAAGAGCACACGU | 9.7 ± 1.3
4 | target 2 MT 5'PFS UAG 3'PFS CCG (mixed) RNA 1: CACCCGUGCAAAAUUGCAGGGGUCUAAAACCUUCUCCAAAUUGUUUCAUCCU RNA 2: GGGAAUGGAUCCACAUCUACGAAUUCUAGAGGAUGAAACAAUUUGGAGAAGCCGAGAUCGGAAGAGCACACGU | 2.56 ± 0.17
5 | target 2 MT 5'PFS GAU 3'PFS UCG (mixed) RNA 1: CACCCGUGCAAAAUUGCAGGGGUCUAAAACCUUCUCCAAAUUGUUUCAUCCU RNA 2: GGGAAUGGAUCCACAUCUACGAAUUCGAUAGGAUGAAACAAUUUGGAGAAGUCGAGAUCGGAAGAGCACACGU | 15.2 ± 1.5
6 | target 2 MT 5'PFS CAG 3'PFS UGC (mixed) RNA 1: CACCCGUGCAAAAUUGCAGGGGUCUAAAACCUUCUCCAAAUUGUUUCAUCCU RNA 2: GGGAAUGGAUCCACAUCUACGAAUUCCAGAGGAUGAAACAAUUUGGAGAAGUGCAGAUCGGAAGAGCACACGU | 4.7 ± 1.2
7 | target 2 MT 5'PFS CAC 3'PFS ACG (mixed) RNA 1: CACCCGUGCAAAAUUGCAGGGGUCUAAAACCUUCUCCAAAUUGUUUCAUCCU RNA 2: GGGAAUGGAUCCACAUCUACGAAUUCCACAGGAUGAAACAAUUUGGAGAAGACGAGAUCGGAAGAGCACACGU | 2.8 ± 0.8
8 | target 2 MT 5'PFS UAG 3'PFS CCA (mixed) RNA 1: CACCCGUGCAAAAUUGCAGGGGUCUAAAACCUUCUCCAAAUUGUUUCAUCCU RNA 2: GGGAAUGGAUCCACAUCUACGAAUUCUAGAGGAUGAAACAAUUUGGAGAAGCCAAGAUCGGAAGAGCACACGU | 5.1 ± 0.4
9 | target 2 MT 5'PFS UUA 3'PFS UGU (mixed) RNA 1: CACCCGUGCAAAAUUGCAGGGGUCUAAAACCUUCUCCAAAUUGUUUCAUCCU RNA 2: GGGAAUGGAUCCACAUCUACGAAUUCUUAAGGAUGAAACAAUUUGGAGAAGUGUAGAUCGGAAGAGCACACGU | 23.1 ± 3
10 | target 2 MT 5'PFS AAG 3'PFS ACG (mixed) RNA 1: CACCCGUGCAAAAUUGCAGGGGUCUAAAACCUUCUCCAAAUUGUUUCAUCCU RNA 2: GGGAAUGGAUCCACAUCUACGAAUUCAAGAGGAUGAAACAAUUUGGAGAAGACGAGAUCGGAAGAGCACACGU | 5.1 ± 0.9
11 | target 2 MT 5'PFS AUU 3'PFS UCC (mixed) RNA 1: CACCCGUGCAAAAUUGCAGGGGUCUAAAACCUUCUCCAAAUUGUUUCAUCCU RNA 2: GGGAAUGGAUCCACAUCUACGAAUUCAUUAGGAUGAAACAAUUUGGAGAAGUCCAGAUCGGAAGAGCACACGU | 16.7 ± 1.8
12 | target 2 MT 5'PFS AAG 3'PFS ACA (mixed) RNA 1: CACCCGUGCAAAAUUGCAGGGGUCUAAAACCUUCUCCAAAUUGUUUCAUCCU RNA 2: GGGAAUGGAUCCACAUCUACGAAUUCAAGAGGAUGAAACAAUUUGGAGAAGACAAGAUCGGAAGAGCACACGU | 5 ± 0.9
13 | target 2 MT 5'PFS ACA 3'PFS AUA (mixed) RNA 1: CACCCGUGCAAAAUUGCAGGGGUCUAAAACCUUCUCCAAAUUGUUUCAUCCU RNA 2: GGGAAUGGAUCCACAUCUACGAAUUCACAAGGAUGAAACAAUUUGGAGAAGAUAAGAUCGGAAGAGCACACGU | 5.7 ± 1.1
14 | target 2 MT 5'PFS CUC 3'PFS UUA (mixed) RNA 1: CACCCGUGCAAAAUUGCAGGGGUCUAAAACCUUCUCCAAAUUGUUUCAUCCU RNA 2: GGGAAUGGAUCCACAUCUACGAAUUCCUCAGGAUGAAACAAUUUGGAGAAGUUAAGAUCGGAAGAGCACACGU | 4.9 ± 0.7
15 | target 2 MT 5'PFS UAU 3'PFS GCC (mixed) RNA 1: CACCCGUGCAAAAUUGCAGGGGUCUAAAACCUUCUCCAAAUUGUUUCAUCCU RNA 2: GGGAAUGGAUCCACAUCUACGAAUUCUAUAGGAUGAAACAAUUUGGAGAAGGCCAGAUCGGAAGAGCACACGU | 43 ± 20
16 | target 2 MT 5'PFS CAC 3'PFS ACA (mixed) RNA 1: CACCCGUGCAAAAUUGCAGGGGUCUAAAACCUUCUCCAAAUUGUUUCAUCCU RNA 2: GGGAAUGGAUCCACAUCUACGAAUUCCACAGGAUGAAACAAUUUGGAGAAGACAAGAUCGGAAGAGCACACGU | 2.5 ± 0.6
17 | target 2 MT 5'PFS GAU 3'PFS UCA (mixed) RNA 1: CACCCGUGCAAAAUUGCAGGGGUCUAAAACCUUCUCCAAAUUGUUUCAUCCU RNA 2: GGGAAUGGAUCCACAUCUACGAAUUCGAUAGGAUGAAACAAUUUGGAGAAGUCAAGAUCGGAAGAGCACACGU | 21 ± 7
18 | target 2 MT 5'PFS AUU 3'PFS UAA (mixed) RNA 1: CACCCGUGCAAAAUUGCAGGGGUCUAAAACCUUCUCCAAAUUGUUUCAUCCU RNA 2: GGGAAUGGAUCCACAUCUACGAAUUCAUUAGGAUGAAACAAUUUGGAGAAGUAAAGAUCGGAAGAGCACACGU | 5.4 ± 0.8
19 | target 2 MT 5'PFS CUC 3'PFS UUC (mixed) RNA 1: CACCCGUGCAAAAUUGCAGGGGUCUAAAACCUUCUCCAAAUUGUUUCAUCCU RNA 2: GGGAAUGGAUCCACAUCUACGAAUUCCUCAGGAUGAAACAAUUUGGAGAAGUUCAGAUCGGAAGAGCACACGU | 6.5 ± 1.6
20 | target 2 MT 5'PFS CAC 3'PFS ACU (mixed) RNA 1: CACCCGUGCAAAAUUGCAGGGGUCUAAAACCUUCUCCAAAUUGUUUCAUCCU RNA 2: GGGAAUGGAUCCACAUCUACGAAUUCCACAGGAUGAAACAAUUUGGAGAAGACUAGAUCGGAAGAGCACACGU | 2.7 ± 1.1
21 | target 2 MT 5'PFS AAG 3'PFS ACU (mixed) RNA 1: CACCCGUGCAAAAUUGCAGGGGUCUAAAACCUUCUCCAAAUUGUUUCAUCCU RNA 2: GGGAAUGGAUCCACAUCUACGAAUUCAAGAGGAUGAAACAAUUUGGAGAAGACUAGAUCGGAAGAGCACACGU | 9 ± 1.3
22 | target 2 MT 5'PFS CAG 3'PFS UGA (mixed) RNA 1: CACCCGUGCAAAAUUGCAGGGGUCUAAAACCUUCUCCAAAUUGUUUCAUCCU RNA 2: GGGAAUGGAUCCACAUCUACGAAUUCCAGAGGAUGAAACAAUUUGGAGAAGUGAAGAUCGGAAGAGCACACGU | 6.8 ± 1.4
23 | target 2 MT 5'PFS AAG 3'PFS ACC (mixed) RNA 1: CACCCGUGCAAAAUUGCAGGGGUCUAAAACCUUCUCCAAAUUGUUUCAUCCU RNA 2: GGGAAUGGAUCCACAUCUACGAAUUCAAGAGGAUGAAACAAUUUGGAGAAGACCAGAUCGGAAGAGCACACGU | ~27
24 | target 2 MT 5'PFS CAG 3'PFS ACC (mixed) RNA 1: CACCCGUGCAAAAUUGCAGGGGUCUAAAACCUUCUCCAAAUUGUUUCAUCCU RNA 2: GGGAAUGGAUCCACAUCUACGAAUUCCAGAGGAUGAAACAAUUUGGAGAAGACCAGAUCGGAAGAGCACACGU | 5.5 ± 1.1
25 | target 2 MT 5'PFS GAU 3'PFS UCC (mixed) RNA 1: CACCCGUGCAAAAUUGCAGGGGUCUAAAACCUUCUCCAAAUUGUUUCAUCCU RNA 2: GGGAAUGGAUCCACAUCUACGAAUUCGAUAGGAUGAAACAAUUUGGAGAAGUCCAGAUCGGAAGAGCACACGU | ~80
26 | target 2 MT 5'PFS CUC 3'PFS UUU (mixed) RNA 1: CACCCGUGCAAAAUUGCAGGGGUCUAAAACCUUCUCCAAAUUGUUUCAUCCU RNA 2: GGGAAUGGAUCCACAUCUACGAAUUCCUCAGGAUGAAACAAUUUGGAGAAGUUUAGAUCGGAAGAGCACACGU | 5.3 ± 0.7
27 | target 2 MT 5'PFS UUA 3'PFS UGC (mixed) RNA 1: CACCCGUGCAAAAUUGCAGGGGUCUAAAACCUUCUCCAAAUUGUUUCAUCCU RNA 2: GGGAAUGGAUCCACAUCUACGAAUUCUUAAGGAUGAAACAAUUUGGAGAAGUGCAGAUCGGAAGAGCACACGU | 33 ± 9
28 | target 2 MT 5'PFS ACA 3'PFS AUC (mixed) RNA 1: CACCCGUGCAAAAUUGCAGGGGUCUAAAACCUUCUCCAAAUUGUUUCAUCCU RNA 2: GGGAAUGGAUCCACAUCUACGAAUUCACAAGGAUGAAACAAUUUGGAGAAGAUCAGAUCGGAAGAGCACACGU | 6.2 ± 1.3

From publication PMC10786891, “Massively parallel profiling of RNA-targeting CRISPR-Cas13d”
